Assay results taken from patent US20250195617A1, “Liquid Pharmaceutical Formulations of CNP Compounds” (Ascendis Pharma Growth Disorders A/S, priority 2022, published 2025).
Bridges are numbered along the chain shown (N, C = ends). Where no end group is shown, it is not given here.

Assay: Storage stability of CNP peptide liquid formulations (F33-45), content and purity by RP-HPLC/MS
Type: physicochemical
Settings: acetate buffer, 5° C., 6 months, LC-MS
Experimental: All excipient stock solutions, except for phenol and m-cresol, were prepared by combining the required excipients in a volumetric flask and filling it up to 90% of the desired volume with water. The pH of the stock solutions was adjusted using 1 M NaOH solution as required and the volume adjusted to the desired volume with water. The stock solutions were filtered through a 0.2 μm PVDF-filter. Stock solutions of phenol (1.75%) and m-cresol (1.05%) were prepared by adding the preservative to the respective excipient stock solution after filtration. Next, the required amount of CNP was dissolved in the required amount of the desired excipient stock solution and the pH was checked and adjusted if needed with 1 M NaOH. The formulations were filtered through a 0.22 μm PVDF filter and the respective preservative stock solution was added. The formulations were aliquoted ready for incubation.
RP-HPLC/MS to determine the content and purity of CNP (F33-45): Mobile phase A was composed of 0.05% aqueous TFA (v/v) and mobile phase B was composed of 0.04% TFA (v/v) in acetonitrile. A Waters Acquity CSH C18, 130 Å, 1.7 μm, 2.1×100 mm column was used. Flow rate was set to 0.3 ml/min, detection was at a wavelength of 215 nm, the column running temperature was 65° C. and the sample injection load was approx. 3 μg CNP-38 eq. (20 μL of a 0.135 mg/ml sample). Samples were diluted to 0.135 mg/mL with dilution buffer (10 mM succinic acid, 84 g/l trehalose dihydrate, adjusted to pH 5 with 1M Tris). For LCMS the HPLC system was coupled to an LTQ Orbitrap Discovery XL instrument and ESI-MS was performed in the positive mode. The change in content of the TIM, T3M and T6M was determined by peak area comparison to the TO sample. For determination of the purity, all peaks higher than the LOQ (0.10%) and not present in the blank were integrated.
The influence of the buffering agent, pH, tonicity agent, detergent, and preservative on the stability of CNP-38 was evaluated. For this purpose, nine formulations of CNP-38 were prepared at a concentration of 2 mg/mL and incubated for 6 months (Table 16). One formulation each at pH 4.5 (F33), pH 5.0 (F34) and pH 4.0 (F35) in acetate buffer were prepared. L-methionine was used to prevent the oxidation of the methionine residue in the peptide, trehalose dihydrate was used as a tonicity or isotonicity agent, Poloxamer 188 as a detergent and m-cresol as a preservative. Another formulation at pH 4.5 containing the same excipients was prepared, in which trehalose was switched to mannitol (F37). […] The formulations were incubated at 5° C. To evaluate whether acetate adducts are formed in acetate buffer, the same formulation as in F33 was incubated at accelerated conditions at 25° C. (F33, 25° C.). […]

Formation of acetylated species, No acetylated peptides:
DLRVDTKSRAAWARLLQEHPNARKYKGANKKGLSKGCFGLKLDRIGSMSGLGC (disulfide 37-53; listed as Homo sapiens) [CNP-53]
GANKKGLSKGCFGLKLDRIGSMSGLGC (disulfide 11-27) [CNP-27]
GLSKGCFGLKLDRIGSMSGLGC [CNP-22]
PGQEHPNARKYKGANKKGLSKGCFGLKLDRIGSMSGLGC (disulfide 23-39) [PG-CNP-37]
